This assay concerns the target T1, flag-tagged soluble TL3 (amino acids 105-251 of SEQ ID NO:234) (Homo sapiens (Human), UniProt O75888 105-250).
T1 construct: Heterologous flag-tagged control protein, immobilized in the ELISA; also called flagged tagged TL-3; not shown: Flag tag
T1 sequence: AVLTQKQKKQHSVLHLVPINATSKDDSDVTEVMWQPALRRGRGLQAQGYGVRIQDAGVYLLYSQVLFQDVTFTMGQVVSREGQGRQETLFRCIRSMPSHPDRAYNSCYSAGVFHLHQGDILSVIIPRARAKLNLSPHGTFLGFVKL
Kind of assay: phage ELISA on immobilized flag-tagged soluble TL3. Put shortly:
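Phage displaying scFvs selected against flag-tagged GMAD were screened by ELISA against immobilized flag-tagged soluble TL3 (residues 105-251) as a heterologous flag-tagged counter-target, to check that binding is GMAD-specific.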
(In general: ELISA stands for enzyme-linked immunosorbent assay.)

19 molecules from patent publication US20050069542A1 (Human Genome Sciences, published 2005) can be followed below.

B1: GMBC689 (scFv)
scFv: QVQLVESGGGLVKPGGSLRLSCAASGFTFSDAWMNWVRQAPGKGLEWVGRIKSKGSGGTIDYAAPVKDRFTISRDDSKNTLYLQMNSLKTEDTALYYCTWDWDFYYGMNVWGQGTLVTVSSGGGGSGGGGSGGGGSQSVLTQPPSASGSPGQSVTISCTGTSSDVGGYNYVSWYQQHPGKAPKFMIYDVSKRPSGVSNRFSGSKSGNTASLTISGVQAEDEADYYCSSYTSASTVVFGGGTKLTVLG
Consider B1, for which the binding result is “no binding”.

B2: GMCC106 (scFv)
scFv: QVQLQESGPGLVKPSGTLSLTCAVSVGSINESNWWSWVRQSPGKGLEWIGEIYPTGTTNYNPSLESRVTISVDKSRNLFSLKLKSVTAADSAMYFCARDRWAGGFDLWGRGTMVTVSSGGGGSGGGGSGGGGSAQSVLTQPPSASGTPGQRVTISCSGSSSNIGSNSVYWYQQLPGTAPKLLIYRNNQRPSGVPDRFSASKSGTSASLAISGLRSEDEADYYCAAWDDSLSGLVFGGGTKLTVLG
B2: the binding result was “no binding”.

B3: GMBC730 (scFv)
scFv: QVQLVESGGDSVKPGGSLRLSCAGSGFTFSDAWMNWVRQAPGKGLEWVGRMKSKGSGGTRDYAAPVNGRFTISRDDSKNTLYLQMNSLNTEDTGVYYCTWDWDFYYGMDVWGKGTTVTVSSGGGGSGGGGSGGGGSQSVLTQPASVSGSPGQSITISCTGTSSDVGGYNYVSWYQQHPGKAPKLMIYEGSKRPSGVSNRFSGSKSGNTASLTISGLQAEDEADYYCSSYTTRSTRVFGGGTKLTVLG
For the molecule B3, the binding result is listed as “no binding”.

B4: GMCC107 (scFv)
scFv: QVQLVQSGAEVKKPGASVKVSCRTSGYTFTDHSMHWVRQAPGQRFEWMGWIGADSGSTQYSRNFQGRLTIGRDTSASTVYMELTSLRSEDTAVYYCARVGGGQGWYSGMDVWGRGTLVTVSSGGGGSGGGGSGGGGSAQAVLTQPSSVSGAPGQRVTISCTGSSSNIGASYDVHWYQQLPGTAPKLLIYNNNNRPSGVPDRFSGSRSGTSASLAITGLQAEDEADYYCHSYDSNLSGDVFGSGTKLTVLG
Take B4: the binding result is reported as “no binding”.

B5: GMBC696 (scFv)
scFv: EVQLVQSRAEVKKPGASVKVSCKTSGYTFNGYYIHWVRQAPGQGLEWMGWIDPINSVTNYAQNFQGRVTMTRDTSINTAYMELSRLTSDDTAVYYCARARVSTILQYWGQGTLVTVSSGGGGSGGGGSGGGGSSELTQDPAVSVALGQTVRITCQGDSLRSYYASWYQQKPGQAPVLVIYGKNNRPSGIPDRFSGSSSGNTASLTITGAQAEDEADYYCNSRDSSGNHVVFGGGTKLTVLG
For B5, the binding result is “no binding”.

B6: GMCC112 (scFv)
scFv: QVQLVQSGGGLVQPGGSLRLSCAASGFSFSTYAMSWVRQAPGKGLEWVSGVSDGGDTFYADSVRGRFTLSRDNAKNTLFLQMNSLTAEDTATYYCAKEIARIGVPNFDHWGQGTLVTVSSGGGGSGGGGSGGGGSALETTLTQSPGTLSLSPGDRATLSCRASQSIRNNDVAWYQQKPGQAPRLLIYSASRRATDIPDRFSGSASGTDFTLTISRLEPEDFAMYYCQQYGGSASFGQGTRLEIKR
With B6, the binding result is “no binding”.

B7: GMCC110 (scFv)
scFv: QVQLQESGPGLVKPSQTLSLTCTVSGASISSGGYRWIWIRQHPGQGLEWIGDIHYSGSTQYNPSLKSRVALTLDRSKNQFSLQLSSVTAADTAVYYCARDPRGHTYGYGYYFDYWGKGTLVTVSSGGGGSGGGGSGGGGSALSSELTQDPDVSVALGQTVTITCQGDRLRRYYASWYQQKPGQAPVLVIFRKNNRPSGIPDRFSGSSSGDTASLTITGAQAEDEADYYCNSRDTSGTLSFGGGTQLTVLS
Take B7: the binding result is “no binding”.

B8: GMCC126 (scFv)
scFv: QVQLQESGPGLVKPSQTLSLSCAVSGFSVTSGHYWGWIRQSPGKGLEWIGNIYHTGSTRYNPSLESRVSMSVDTSKNQFSLRLTSVTAADTAIYYCARVGRGQHLVRGDFDYWGRGTLVTVSSGGGGSGGGGSGGGGSAQSVLTQPPSISVSPGQTASITCSGDELGHKYASWYQQKPGQSPVVVVYQDNKRPSGIPERFSGSSSGNTATLTISGTQAVDEADYFCQAWDSSAVVFGGGTKLTVLG
For the molecule B8, the binding result is “no binding”.

B9: GMBC691 (scFv)
scFv: EVQLVQSGAEVKKPGASMKVSCKTSGDTFNGFYVHWVRQAPGQGLEWMGRINPNGGGTNYAQKFQGRVTMTRDTSMNTAYMELRSLRSDDTAVYYCARDLFYDFWSDYYRNDQYYYMDVWGRGTLVTVSSGGGGSGGGGSGGGGSSELTQDPAVSVALGQTVRITCQGDSLRSYYASWYQQKPGQAPVLVIYGKNNRPSGIPDRFSGSSSGNTASLTITGAQAEDEADYYCNSRDSSGNHVVFGGGTKLTVLG
Turning to B9, the binding result is recorded as “no binding”.

B10: GMCC118 (scFv)
scFv: EVQLVQSGGGLVKPGGSLRLSCTASGFSFTNAWMSWVRQAPGKGLEWVGRIKSRNDGGATDYAAPVKGRFTISRDDSKNTLYLQMNSLKTDDTAVYYCTTDNFPLRFLEWLSHPDYWGQGTMVTVSSGGGGSGGGGSGGGGSAQAVLTQPSSVSVSPGQTVTITCSGEKLDNKYISWYQQRPGRSPILVIYQDRKRPSGIPERFSGSNSGNTATLTITGSQPLDEADYYCQAWDSSTAWEFGGGTKLTVLG
Turning to B10, the binding result is reported as “no binding”.

B11: GMBC612 (scFv)
scFv: EVQLVESGGGVVQPGGSLRLSCAASGFSFSSYGMQWVRQAPGKGLEWVAFIRYDGSIKYYADSVKGRFTVSRDNSKNTLYLQMNSLRAEDTAVYYCARGYRIVDYWGQGTLVTVSSGGGGSGGGGSGGGGSDIQMTQSPSTLSPSIGDRVTITCRASEGIYHWLAWYQQKPGKAPKLLIYKASSLASGAPSRFSGSGSGTDFTLTISSLQPDDFATYYCQQYSNYPLTFGGGTKLEIKR
As to B11, the binding result is on record as “no binding”.

B12: GMCC101 (scFv)
scFv: EVQLVQSGAEVKKPGSSVKVSCKASGGTFRTYAITWVRQAPGQGLEWMGGIIPISATANYAQKFQGRVTITADESMSTAYMELSSLRSEDTAVYYCARDREPHYFDNWGRGTMVTVSSGGGGSGGGGSGGGGSALPVLTQPPSVSEAPRQGVTISCSGSSSNIGNNAVSWYQQLPGQAPKLLIYYDDLLPSGVSDRFSASKSGTSASLAISGLQSEDEADYYCAAWDDSLNGVIFGGGTQLTVLS
With B12, the binding result is “no binding”.

B13: GMCC124 (scFv)
scFv: QVTLKESGAEVKKPGASVKVSCKASGYTFTDNALHWVRQAPGQRPEWMAWINTANGNTRYSQKFQGRLTITRDTSASTAFMDLSSLRSEDTAVYYCARQKAYKNYYYYYGMDVWGQGTLVTVSSGGGGSGGGGSGGGGSAQSVVTQPPSVSAAPGQKVTISCSGSSSNIGNNYVSWYQQLPGTAPKLLIYENNKRPSGIPDRFSGSQSGTSATLGISGLQTGDEADYYCGTWDSSLRAGVFGGGTKLTVLG
For B13, the binding result is on record as “no binding”.

B14: GMCC114 (scFv)
scFv: EVQLVESGPEVKKPGSSVKVSCKASGAAAFSSYAISWVRQAPGRGLEWMGGIIPISDTPKYAHKFQGRVTITADESTTTVFMEVSGLRSDDTAVYYCATTTRYGSGTYDYMDVWGQGTMVTVSSGGGGSGGGGSGGGGSALSSELTQDPAVSVALGQTVRITCQGDSLRSYYASWYQQKPGQAPVLVFYGKNKRPSGIPDRFSGSTSGNTASLSITGALADDEADYYCHSRDTSGAQILFGGGTKLTVLG
For B14, the binding result is “no binding”.

B15: GMCC119 (scFv)
scFv: EVQLVQSGPEVKKPGASVKVSCKASNYTFTTYDISWVRQAPGQGLEWMGWISTYSGNTKYAQKFQGRVTMTRDTSTSAAYMELRNLRSDDTAVYFCARDIRVWRGSGSVHYFDPWGRGTTVTVSSGGGGSGGGGSGGGGSAQSALTQPRSVSGSPGQSVTISCTGTSNDVGGYNFVSWYQQHPGKAPKLMVYNVSKRPSGVPDRFSGSKSGNTASLTISGLQAEDEADYYCSSYAHSYTLVFGGGTKVTVLG
B15: the binding result is “no binding”.

B16: GMCC105 (scFv)
scFv: QVQLVQSGGGVVQPGRSLRLSCTASGFNLGSHGMHWVRQAPGKGLEWVAVIGFDGTTKYYVDSVKGRFTISRDNSRNTLSLQMNSLRAEDTAVYYCVREDYYYDSSGYYFDYWGRGTLVTVSSGGGGSGGGGSGGGGSALSSELTQDPFVSVALGQTVRIACRGDSLRDSYASWYQQKPGQAPRLLVYGNNLRPSGIPGRFSGSSSGDTASLSITETQAGDEADYYCSSRGNSTSRLYVFGTGTKLTVLG
Take B16: the binding result is recorded as “no binding”.

B17: GMBC610 (scFv)
scFv: QVTLKESGAEVKKPGASVKVSCKTSGFTFGAYYIHWVRQVPGQGLEWMGWIDPNNGGTNYAQKFQGRVTMTRDMSTTTTYMEVSGLHSDDTAVYYCARARVATILEYWGRGTLVTVSSGGGGSGGGGSGGGGSPELTQDPAVSVALGQTVRITCQGDSLRSYYASWYQQKPGQAPVLVIYGKNNRPSGIPDRFSGSSSGNTASLTITGAQAEDEADYYCNSRDSSGNHVVFGGGTKLTVLG
Take B17: the binding result is recorded as “no binding”.

B18: GMCC108 (scFv)
scFv: EVQLVQSGAEVKEPGASVTVSCKASGYTFISYHMHWVRQAPGQGLEWMGIINPSGGDTTYAQKFQGRVTMTRDTSTSTVYMELRSLRFEDTARYYCARDLKFYDFRSGKYQDYGMDVWGQGTLVTVSSGGGGSGGGGSGGGGSAQSVLTQPPSLSVAPGQTASITCGGNDIGTKSVHWYQLKPGQAPVLVVYDNRDRPSGIPERFSGSNSGNTATLTISRVEGGDEADYYCQVWDSSIDHSEYVFGTGTKLTVLG
B18: the binding result was “no binding”.

B19: GMCC125 (scFv)
scFv: EVQLVQSGGGLVKPGGSLRLSCAASGFSFSDYSMHWIRQAPGKGLEWLSHIGTSTSYTNYADSVKGRFTISRDNAKNSFYLQMNSLRVDDTAVYFCARGFGGLRGYFDYWGQGTLVTVSSGGGGSGGGGSGGGGSALSSELTQDPAVSVALGQTVKITCQGDRLRRFYASWYQQKPGQAPLLLIYGKNSRPSGIPDRFSGSTSGATASLTITGAQAEDEADYYCNSRDSSGSLHSVFGTGTKVTVLG
Consider B19, for which the binding result is reported as “no binding”.
